Source: publication PMC11533912 (Journal of Nuclear Medicine, 2024)
Entries after “also recorded” stand apart in the source; their conditions may differ.

Experiments:
[1] = tested on: PC-3 xenograft tumors; assay: α-imaging and biodistribution in PC-3 tumors of varying size; assay type: in vivo, mice
Description: (§1) For all tumor studies, 1 × 10^6 PC-3 cells were implanted subcutaneously into the right flank of each mouse in a mixture of equal volumes of HC-Matrigel (high concentration; Corning) and RPMI medium (Gibco) and grown to a volume of about 200–300 mm^3.
Images were analyzed using Andor Solis software (ImageJ).
FIGURE 5. Biodistribution in varying-size tumors and drug microdistribution in tumor using α-imaging of [^212Pb]Pb-DOTAM-GRPR1. […] (B) Biodistribution of drug at 4 h after injection in tumors measuring 150 mm^3 (n = 5), 300 mm^3 (n = 6), 600 mm^3 (n = 4), and 900 mm^3 (n = 3). In left panel, tissue uptake is expressed as %ID/g ± SD (P < 0.05). Right panel is expressed as %ID ± SD. H&E = hematoxylin and eosin; LWH = length × width × height.

[2] = Biodistribution in PC-3 tumor-bearing mice; assay type: in vivo, athymic nude male mice
Description: as §1
PC-3 tumors were grown in male mice until an approximate tumor volume of 300 mm^3 was reached. […] The background was automatically subtracted from the counts. A standard was also used for decay correction, and the percent injected dose (%ID) per gram of tissue was calculated for each organ collected.
FIGURE 3. In vivo distribution of [^212Pb]Pb-DOTAM-GRPR1. (A) In athymic nude male mice carrying subcutaneous PC-3 tumors, 370 kBq of drug were administered and organs were collected from 5 mice per time point: 1, 4, and 24 h after injection. (B) At different specific activity in PC-3 tumor-bearing mice, 370 kBq per 28, 140, or 280 ng of DOTAM-GRPR1 were administered and organs were collected from 5 mice per time point: 1, 4, and 24 h after injection. Tissue uptake is expressed as %ID/g ± SD (n = 5). All tissues with uptake below 2% at 1 h were excluded from graph. ***P = 0.00013 between 280 ng of pancreas and 28 ng of pancreas.

For `CC(C)C[C@H](NC(=O)C[C@H](O)[C@H](CC(C)C)NC(=O)[C@H](Cc1c[nH]cn1)NC(=O)CNC(=O)[C@@H](NC(=O)[C@H](C)NC(=O)[C@H](Cc1c[nH]c2ccccc12)NC(=O)[C@H](CCC(N)=O)NC(=O)[C@@H](Cc1ccccc1)NC(=O)CCNC(=O)CCNC(=O)CN1CCN(CC(N)=O)CCN(CC(N)=O)CCN(CC(N)=O)CC1)C(C)C)C(N)=O` [[^212Pb]Pb-DOTAM-GRPR1, metal not drawn], the “Correlation of tumor volume and tumor uptake” value ([1]; 4 h after injection, tumors 150 (n = 5), 300 (n = 6), 600 (n = 4), 900 mm^3 (n = 3), visible in %ID/g but not in %ID) was “negative correlation between tumor volume and tumor uptake; also recorded: lower tumor uptake in large tumors (%ID/g but not %ID)”, the “Microdistribution in PC-3 tumors (α-imaging, H&E)” value ([1]; tumor sizes up to 900 mm^3, except necrotic areas) was “homogeneous distribution of the drug at various tumor sizes of up to 900 mm^3, except for the necrotic areas; also recorded: homogeneous microdistribution” and the “PC-3 tumor uptake over time” value ([2]; 4–24 h after administration, 370 kBq, intravenous, athymic nude male mice, n = 5 per time point) was “remained constant for 4–24 h after drug administration”. The “Washout, pancreas versus tumor” value ([2]; PC-3 tumor-bearing mice) was “faster washout was observed from the pancreas than from tumor tissues”, the tissue uptake at 1 h ([2]; mouse, PC-3 tumor, 1 h after administration, 370 kBq, intravenous (tail vein), athymic nude male mice, n = 5 per time point) was roughly 5 %ID/g and the “Biodistribution profile, activity in nontumor tissues” value ([2]; nonclinical, mice) was “safe biodistribution profile with a considerably low activity in nontumor tissues”. The Tumor targeting ([2]; up to value, over 24 h, intravenous, GRPR-positive prostate tumor-bearing mice) was “up to 5 percent injected dose per gram” and the “Kidney uptake compared with radiolabeled somatostatin receptor ligands such as [^212Pb]Pb-DOTAMTATE with renal blocker” value ([2]; without renal blocker, comparator ref 9) was “well below kidney retention values of radiolabeled somatostatin receptors ligands”.
